Source: US20220177583A1
Substitutions are numbered along the chain they refer to.

B1: AB11-2 (antibody, V domains shown)
VH: EVQLVESGGGLVQPGGSLRLSCAASGFTFSSFGMHWVRQAPGKGLEWVAYISSDSRTIYYADSVKGRFTISRDNAKNSLYLQMNSLRAEDTAVYYCARDYGRTYEAYWGQGTLVTVSS
VL: DIVMTQSPDSLAVSLGERATINCRASKSVSTSGYSYIHWYQQKPGQPPKLLIYLASNLESGVPDRFSGSGSGTDFTLTISSLQAEDVAVYYCQHSRELPLTFGQGTKLEIK
B2: AB11-3 (antibody, V domains shown)
VH: B1 VH
VL: B1 VL with M4L, L82V, I110L
B3: AB5 (antibody, V domains shown)
VH: EVQLQQSGPELVKPGASVKMSCKASGYIFTHYIMHWVKQKPGQGLEWIGCINPYNDGTKYNEKFKGKATLTSDKSSSTAYMELSSLTSEDSAVYYCARYYGYPYYSMDYWGQGTSVTVSS
VL: DVLMTQTPLSLPVSLGDQPSISCRSSQSIVHSNGNTYLDWYLQKPGQSPKLLIYKVSNRFSGVPDRFSGSGSGTDFTLKISRVEAEDLGVYYCFQGSHVPFTFGSGTRLEIK
B4: AB4 (antibody, V domains shown)
VH: QVQLQQSGAELARPGASVKMSCKASGYTFTSYTMHWIKQRPGQGQEWIGYINPSSTYTHYIKKFKDKATLTADKSSSTAYMQLRSLTSEDSAVYYCSRGELGGFAYWGQGTLVTVSA
VL: DVVMTQTPLSLPVSLGDQASISCRSSQSLVHSDGNTYLNWYLQKPGQSPKLLIYKVSNRFSGVPDRFSGSGSGTDFTLKIRRVEAEDLGVYFCSQSTHVPYTFGGGTKLEIK
B5: AB10 (antibody, V domains shown)
VH: QIQLVQSGPALKKPGETVKISCKASGYTFTDYSMHWIKQAPGKGLKWMGWISTETGEPTYADGFKGRFDFSLETSADTAYLSINNLTNEDTATYFCTRGLWSSFAYWGQGTLVTVSA
VL: B4 VL with S25A, D33N, N39H, Y41F, G73R, R81S, S96I
B6: AB3 (antibody, V domains shown)
VH: EVKLEESGGGLVQPGGSMKLSCVASGFTFSNYWMNWVRQSPEKGLEWVAQIRLKSDNYATHYAESVKGRFTISRDDSKRSVYLQMNNLRAEDTGTYYCNDGPPSGCWGQGTTLIVSS
VL: DIQMTQSPASLSASVGETVTITCRISENIYSYLAWYQQKQGKSPQLLVYNAKILVEGVPSRFSGSGSGTQFSLKINSLQPEDFGNYYCQHHYTVPWTFGGGTKLEIK
B7: AB2 (antibody, V domains shown)
VH: B6 VH with N31D
VL: B6 VL
B8: AB13 (antibody, V domains shown)
VH: QVQLQQSGAELVRPGTSVKVSCKASGYAFSNYLIEWVKQRPGQGLEWIGVINPGSGGTNYNEKFKGKATMTADKSSSTAYMHLSNLTSEDSVVYFCARSYFGRSYPYTMDYWGQGTSVTVSS
VL: EIVLTQSPTTMAASPGEKITITCSASSSISSNYLHWYQQKPGFSPKLLIYRTSNLASGVPARFSGSGSGTSYSLTIGTMEAEDVATYYCQQGSSIPLTFGAGTKLELK
B9: AB12 (antibody, V domains shown)
VH: EVKLMESGGDLVKPGGSLKLSCAASGFTFSSYAMSWVRQTPEKRLEWVASIRSGGTTYYPDSVKGRFTISRDNARNILYLRMSSLRSEDTAIYYCAKVGGNPYPMDYWGQGTSVTVSS
VL: DIQMIQSPSSMFASLGDRVSLSCRASQDIGGNLDWYQQKPGGTIKLLIYSTSNLNSGVPSRFSGSGSGSDYSLTITSLESEDFADYYCLQRNAYPLTFGAGTKLELK
B10: AB9 (antibody, V domains shown)
VH: EVQLQQSGPELVKPGASVKMSCKASGYRFTDYNMHWVKQSHGKSLEWIGYINPNNGGTNYNQNFKGKATLTVNKSSSTAYMELRSLTSEDSAAYYCARDYLYFFDCWGQGTTLTVSS
VL: DIQMTQSPASQSASLGESVTITCLASQTIGTWLAWYQQKPGKSPQLLIYAAASLADGVPSRFSGSGSGTRFSFKISSLQAEDFVSYYCQQLYSIPRTFGGGTKLEIK
B11: AB6 (antibody, V domains shown)
VH: DVQLQESGPGLVKSSQSLSLTCSVTGYSITSGYYWKWIRQFPGNKLEWMGYISYDGGINYNPSLKNRISITRDTSKNQFFLKLNSVTTEDTAKYYCARFGKGAMDYWGQGTSVTVSS
VL: AIVMFQSPSSLVVSAGEKVTMSCKSSQSLLNSRTRKNYLAWYQQKPGQSPKLLIYWASTRESGVPDRFTGSGSGTDFTLTISSVQAEDLAVYYCKQSYYLYTFGGGTKLEIK
B12: AB1 (antibody, V domains shown)
VH: QVQLQQSAAELARPGASVKMSCKASGYTFTTYTMHWVKQRPGQGLEWIGFINPSSGYTDYNQKFKDRTTLTADKSSSTVYMQLSSLTSEDSAVYYCANGDYYVAYWGQGTLVTVSA
VL: QIVLTQSPAIMSASLGERVTMTCTASSSVSSTYFHWYQQKPGSSPKLWIYSTSNLASGVPRRFSGSASGTSYSLTISSMEAEDAATYYCHQYHRSPLTFGAGTKLELK
B13: AB7 (antibody, V domains shown)
VH: EVQLQQSGPELVKPGASMKISCKASGYSFTGYTMNWVKQSHGKNLEWIGLINPYNGGTNYNQKFKGKATLTVDKSSSTAYMELLSLTSEDSAVYYCARGVYDYDGFTYWGQGTLVTVSA
VL: B12 VL with E17D, T32S, F34L, R61A, A67G, L97P, A101S, L107I
B14: AB14 (antibody, V domains shown)
VH: QVQLQQSGPELVRPGVSVKISCKGSGYTFTDYAMHWVKQSHAKSLEWIGVISTYSGNTNYNQKFQDKATMTVDKSSSTAYMALARLTSDDSAIYYCARRGDYSLYAMDYWGQGTSVTVSS
VL: DIVLTQSPASLAVSLGQRATISCKASQSVDYDGDNYVNWYQQKVGQPPKLLISAASNLESGIPARFSGSGSGTDFTLNIHPVEEEDAATYYCQQSNEDPFTFGSGTKLEIK
B15: AB11 (antibody, V domains shown)
VH: DVQLVESGGGLVQPRGSRKLSCAASGFTFSSFGMHWVRQAPEKGLEWVAYISSDSRTIYYADTVKGRFTISRDNPTNTLFLQMTSLRSEDTAMYYCARDYGRTYEAYWGQGTLVTVSA
VL: DIVLTQSPASLAVSLGQRATISCRASKSVSTSGYSYIHWYQQKPGQPPKLLIYLASNLESGVPARFSGSGSGTDFTLNIHPVEEEDAATYYCQHSRELPLTFGAGTKLELK

Experiments:
[1] = target: human CLDN6 fused to GFP, expressed on engineered HEK293T cells (human) (UniProt P56747); assay: FACS, 293T clone with human CLDN6, 0.3 ug Ab
[2] = target: human CLDN6 fused to GFP, expressed on engineered HEK293T cells (human) (UniProt P56747); assay: FACS, 293T clone with human CLDN6, 1.5 ug Ab
[3] = target: CLDN3/4 endogenously expressed on LS513 and MCF7 cells; assay: FACS dose curve, labelled mAb, MCF7 cells
[4] = target: CLDN3/4 endogenously expressed on LS513 and MCF7 cells; assay: FACS dose curve, labelled mAb, LS513 cells
[5] = target: human CLDN6 fused to GFP, expressed on engineered HEK293T cells (human) (UniProt P56747); assay: FACS dose curve, labelled mAb, HEK293T-CLDN6-mGFP cells

Row | Binder | FACS signal [1] | FACS signal [2] | EC50 [3] [µM] | EC50 [4] [µM] | EC50 [5] [µM]
1 | B1 | 1290 | 2560 | – | – | –
2 | B2 | 1010 | 2360 | – | – | –
3 | B3 | – | – | 1.49 | 0.781 | 0.01
4 | B4 | – | – | 0.653 | 0.73 | 0.017
5 | B5 | – | – | 5 | 1.95 | 2.76
6 | B6 | – | – | 5 | 5 | 0.604
7 | B7 | – | – | 5 | 5 | 0.182
8 | B8 | – | – | 5 | 1.59 | 5
9 | B9 | – | – | 5 | 2.27 | 5
10 | B10 | – | – | 5 | 1.04 | 2.67
11 | B11 | – | – | 1.14 | 0.133 | 1.43
12 | B12 | – | – | 5 | 5 | 0.109
13 | B13 | – | – | 0.979 | 0.635 | 0.579
14 | B14 | – | – | 0.546 | 1.16 | 5
15 | B15 | – | – | 0.427 | 0.493 | 1.7
